Data reported in article PMC11943158.
Like-named read-outs stand apart in the source and are kept apart here.

B1: Gli2: S355A (protein)
parent chain: METSAPAPALEKKEAKSGLLEDSSFPDPGKKACPLAVAAAVAAHGVPQQLLPAFHAPLPIDMRHQEGRYHYDPHSVHSVHGPPTLSGSPVISDISLIRLSPHPAGPGESPFSAHHPYVNPHMEHYLRSVHSSPTLSMISAARGLSPADVAHEHLKERGLFSLAAPGTNPSDYYHQMTLMASHPTPYGDLLMQSGGAASAPHLHDYLNPVDASRFSSPRVTPRLSRKRALSISPLSDASLDLQRMIRTSPNSLVAYINNSRSSSAASGSYGHLSAGALSPAFTFPHPINPVAYQQILSQQRGLGSAFGHTPPLIQPSPTFLAQQPMTLTSISTMPTQLSSSSSNCLNDANQNKQNSESAVSSTVNPITIHKRSKVKTEAEGLRPASPLGLTQEQLADLKEDLDRDDCKQEAEVVIYETNCHWADCTKEYDTQEQLVHHINNEHIHGEKKEFVCRWQACTREQKPFKAQYMLVVHMRRHTGEKPHKCTFEGCSKAYSRLENLKTHLRSHTGEKPYVCEHEGCNKAFSNASDRAKHQNRTHSNEKPYICKIPGCTKRYTDPSSLRKHVKTVHGPDAHVTKKQRNDVHVRAPLLKENGDNEASAEPGGRGPEESVEASSTSHTVEDCLHIKAIKTESSGLCQSSPGAQSSCSSEPSPLGSAPNNDSGMEMPGTGPGSLGDLTALADTCPGADTSALAAPSTGGLQLRKHMSTVHRFEQLKREKLKSLKDSCSWAGPAPHTRNTKLPPLPVNGSVLENFNNTGGGGPAGLLPSQRLPELTEVTMLSQLQERRDSSTSTMSSAYTVSRRSSGISPYFSSRRSSEASPLGGLRPHNASSADSYDPISTDASRRSSEASQCSGGGPGLLNLTPAQQYNLRAKYAAATGGPPPTPLPGLDRVSLRTRLALLDAPERALPGACPHPLGPRRGSDGPTYSHGHGHGYAGAAPAFPHEGPNSSTRRASDPVRRPDPLILPRVQRFHSTHNMNPGSLPPCADRRGLHVQSHPSVDSNLTRNAYSPRPPSINENVVMEAVAAGVDGPGLECDLGLVEDELVLPDDVVQYIKAHTGGTLDDGIRQGYPTEGTGFPENSKLPSPGLQGHRRLAAADSNMGPSAPGLGGCQLSYSPSSNLNKSNMPVQWNEVSSGTVDALPTQVKPPPFPHSNLAVVQQKPAFGQYPGYNPQSVQSSSGGLDSTQPHLQLRGAPSASRGSYTQQPRQPAAGSQCLGMSAAMSPQASYSQAHPQLSPNIVSGSLNQFSPSCSNMAAKPSHLGLPQQMEVVPNATIMNGHQREHGVPNSSLAAVSQPHPVLSYPQQDSYQQGSNLLSSHQPGFMESQQNAGFGLMQPRPPLEPNTASRHRGVRSGQQQLYARTTGQAMVTSANQETAEAMPKGPAGTMVSLAPQPSQDTGRAQDQNTLYYYGQIHMYEQNGGCPAVQPQPPQPQACSDSIQPEPLPSPGVNQVSSTVDSQLLEPPQIDFDAIMDDGDHSSLFSGALSPTLLHNLSQNSSRLTTPRNSLTLPSIPAGISNMAVGDMSSMLTSLAEESKFLNMMT
B2: Gli2: OSMI (protein)
parent chain: METSAPAPALEKKEAKSGLLEDSSFPDPGKKACPLAVAAAVAAHGVPQQLLPAFHAPLPIDMRHQEGRYHYDPHSVHSVHGPPTLSGSPVISDISLIRLSPHPAGPGESPFSAHHPYVNPHMEHYLRSVHSSPTLSMISAARGLSPADVAHEHLKERGLFSLAAPGTNPSDYYHQMTLMASHPTPYGDLLMQSGGAASAPHLHDYLNPVDASRFSSPRVTPRLSRKRALSISPLSDASLDLQRMIRTSPNSLVAYINNSRSSSAASGSYGHLSAGALSPAFTFPHPINPVAYQQILSQQRGLGSAFGHTPPLIQPSPTFLAQQPMTLTSISTMPTQLSSSSSNCLNDANQNKQNSESAVSSTVNPITIHKRSKVKTEAEGLRPASPLGLTQEQLADLKEDLDRDDCKQEAEVVIYETNCHWADCTKEYDTQEQLVHHINNEHIHGEKKEFVCRWQACTREQKPFKAQYMLVVHMRRHTGEKPHKCTFEGCSKAYSRLENLKTHLRSHTGEKPYVCEHEGCNKAFSNASDRAKHQNRTHSNEKPYICKIPGCTKRYTDPSSLRKHVKTVHGPDAHVTKKQRNDVHVRAPLLKENGDNEASAEPGGRGPEESVEASSTSHTVEDCLHIKAIKTESSGLCQSSPGAQSSCSSEPSPLGSAPNNDSGMEMPGTGPGSLGDLTALADTCPGADTSALAAPSTGGLQLRKHMSTVHRFEQLKREKLKSLKDSCSWAGPAPHTRNTKLPPLPVNGSVLENFNNTGGGGPAGLLPSQRLPELTEVTMLSQLQERRDSSTSTMSSAYTVSRRSSGISPYFSSRRSSEASPLGGLRPHNASSADSYDPISTDASRRSSEASQCSGGGPGLLNLTPAQQYNLRAKYAAATGGPPPTPLPGLDRVSLRTRLALLDAPERALPGACPHPLGPRRGSDGPTYSHGHGHGYAGAAPAFPHEGPNSSTRRASDPVRRPDPLILPRVQRFHSTHNMNPGSLPPCADRRGLHVQSHPSVDSNLTRNAYSPRPPSINENVVMEAVAAGVDGPGLECDLGLVEDELVLPDDVVQYIKAHTGGTLDDGIRQGYPTEGTGFPENSKLPSPGLQGHRRLAAADSNMGPSAPGLGGCQLSYSPSSNLNKSNMPVQWNEVSSGTVDALPTQVKPPPFPHSNLAVVQQKPAFGQYPGYNPQSVQSSSGGLDSTQPHLQLRGAPSASRGSYTQQPRQPAAGSQCLGMSAAMSPQASYSQAHPQLSPNIVSGSLNQFSPSCSNMAAKPSHLGLPQQMEVVPNATIMNGHQREHGVPNSSLAAVSQPHPVLSYPQQDSYQQGSNLLSSHQPGFMESQQNAGFGLMQPRPPLEPNTASRHRGVRSGQQQLYARTTGQAMVTSANQETAEAMPKGPAGTMVSLAPQPSQDTGRAQDQNTLYYYGQIHMYEQNGGCPAVQPQPPQPQACSDSIQPEPLPSPGVNQVSSTVDSQLLEPPQIDFDAIMDDGDHSSLFSGALSPTLLHNLSQNSSRLTTPRNSLTLPSIPAGISNMAVGDMSSMLTSLAEESKFLNMMT

Tests used:
[1] = O-GlcNAc at S355
Flag Western blot = settings: glycan lost; control: Gli2-WT
[2] = cycloheximide chase, Flag Western blot; settings: glycan lost

| Protein | degradation_or_half_life [1] | expression_or_secretion [1] | expression_or_secretion (Flag Western blot) | degradation_or_half_life ([2]; control: Gli2-WT) | degradation_or_half_life, half_life ([2]; control: PM without OSMI) |
| --- | --- | --- | --- | --- | --- |
| B1 | decreases | decreases | decreases | decreases |  |
| B2 | decreases, PM extended half-life from approximately 6 to 24 h; OSMI eliminated this |  |  |  | decreases |
